Experimental data taken from the DeepSol protein solubility set.

Test: soluble on expression in E. coli; label from the status in PepcDB or PDB records

## MTIPLHTITSFRATFNPFSRSARPCRLLLSLLRNPSTTPASSPTHIDIQVTQLPRHSTQPPEMTVGFRGGKEVKIEVGKKQMKIGDVIEELARVGRSIEREETLKG
  soluble on expression in E. coli: not soluble

## QVQLQQSGAELMKPGASVKISCKATGYTFSSYWIAWVKQRPGHGLEWIGEILPGSGSTNYNEKFKGKATFTADTSSNTAYMQLSSLTSEDSAVYYCARSPYYYGNWDYWGQGTTLTVSSAKTTPPSVYPLAPGSAAQTNSMVTLGCLVKGYFPEPVTVTWNSGSLSSGVHTFPAVLQSDLYTLSSSVTVPSSTWPSETVTCNVAHPASSTKVDKKIVPRDC
  soluble on expression in E. coli: soluble

## TVVEEDTGGNTDLEAVRRTLLAQFEQYAKLNKKIPAEIIGSINGIAENSRLTDTVAAHLQLKLAQRQQILEIPEIGKRMEFLLAQLESELDIMQAEKRIRGRVKRQMEKSQREYYLNEQIKAIHKELGEEDENGELDALEADIKKAGMTKEAEEKCLSELKKLKMMPPMSAESTVVRNYIDTLLELPWKKKSRVSKDIAKAGLVLDADHYGLEKVKERILEYLAVQKRMDKLKGPILCLVGPPGVGKTSLGESIAKATGRKYVRMALGGVRDESEIRGHRRTYIGSMPGKILQNMAKAGVKNPLFLLDEIDKLGNDFRGDPASALLEVLDPEQNNKFADHYAEVDYDLSDVMFIATSNSLNIPTPLLDRMEIIRL
  soluble on expression in E. coli: not soluble

## GPGSMRGVYPYLFAEDMRSRGAGEPAKKEVKKNKFVATINWELFTRVERMDVVFSPRPKGVTTGNEGDIADGCETGAPAVWSFVPVGVPHGENYRANAFLVPMHDKSESPRLLLYVSDISELEDRFFTDLARSKVLLGVDPAVPIEVLVLDMLSRRPYVAHLHVEASIAAAKRINAAKTYYVGMSHRINYDEMMQELQQLGLGATMEMGYDGCVVSVGDSGLQHLSGRL
  soluble on expression in E. coli: not soluble

## MKTEKDKMLAGEMYIADDEELVADRVEAKRLTRLYNEAVETGDERRFTLLNQLLGSSADGKAQINPDFRCDYGYNIHVGKSFFANFNCVILDVCEVRIGDHCMFAPGVHIYTATHPLHPVERNSGKEYGKPVKIGNNVWVGGGAIINPGVSIGDNAVIASGAVVTKDVPNNVVVGGNPAKVIKTIEE
  soluble on expression in E. coli: not soluble

## MTEYERPQTPGVVTHDAVVLAGGAARRLGGADKPGVRVGGRALLDRVLAACAGAATTVVVADPRATARPVVWAREEPPGAGPVAALDAGLRRTTAAYVVVLSADLPFLDEETVRRLLSTLQASGTEGVLLTDPGGRDQPLVAAYRSAALRRELAELAAGHGTLAGLPLRVLVAALDLTRVSDPVASFDCDTWDDIAAARSRIREHGNVLDEWISAVKDELGIDLAVDTGILLDLARDAAHGVARPAAPLTTFLVGYAAAQAGGGPEAVAEAARKAAALALRWADEAAAEAGPDAGLEHHHHHH
  soluble on expression in E. coli: not soluble

## MGSDKIHHHHHHMSWPLDDETASPHFSIRCLEEPMLINADFSRRAIVTPHEYQWVASPQGGVERVMLDRVGAEKARATSIVRYAPGSHFPRHQHPAGEEILVLSGTFSDEGGHYPAGWYLRNPPGSCHQPSSREGAMIFVKLRQMPLHEARRVRVDTRDPAAWRRQNGREVCPLFADDAEQVCLHRMAPNDALVAAQGDGAELLVLTGAVVAEGEIYGRGSWIRVPADDSLHVVAASQGATVYLKTGLPVAIGAEV
  soluble on expression in E. coli: not soluble

## MALEGLKTSCCRPNEPLTTNSMAIAQEKAQHQQRSSLRNMTRPMIGRSGPKEASMTTRTRRETIVFAHPFRLRGIDRELPAGAYDVITDEELIEGLSFPVFRRVATMITVPCAPPRQSAVEMLTIEPDALRDARQADSSTSRA
  soluble on expression in E. coli: not soluble

## MGSDKIHHHHHHLDRYPQEELSDGSFWKTPDDANKVVSDLYGYLSTWDQDNDINSDNATMGIKWAAGNVSKGIYDPADQGWSGDYANVRQCNLILSKIDEIPDYPEADKTKALGQVYFFRAYIYFNLIRSFGDVPYIDKPLDLKDMEGITRMPRAEVYEKIMADFDKAIAALPTEWGASDYGRVTKGAAMAMKARAALYYGNWDTAATEAKNVMDLGLYELYDKDNTGKYAELFWEKADGCDEFILVTQFNYPDKTHYLMGWECFPTKGWGGMNPTQSLVDAFEDSEGAPISKSKIYDPTDPFKNRDPRLEVDILHDGEEMYGVTIKVAPLASSGSTGINQHNDATETGYYGQKWLDPSLDPLSDGWNMGKDWVHIRYAEVLLTYAEAKNELQGLDPEAFDAVNQVRRRVGMPELQNTDPSKPTYCATQDDLRQRIRNEWRVEFCLEGGKRMWDIRRWGIAKDVLNAPFEGLKYKIVDNPNDPDKKVDGGKMCILYQGDPIILSGSRYSDNNYLFPVPQSEIDLNPALTQNPGY
  soluble on expression in E. coli: not soluble

## PATDASVLLVQLSDSHLFAEDGARLLGMDTAHSLEKVVERVAREQPRIDLILATGDVSQDGSLDSYTRFRRLSAPLDAPLRWFAGNHDEREPMQRATEGSDLLEQVVDVGNWRVVLLDSSIPGAVPGYLEEDQLELLRRAIDSAGERFLLVSFHHHPVPIGSDWMDPIGLRNPQALFDLLAPYPQVRCLLWGHIHQEFDRQRGPLRLLASPSTCVQFAPGSSDFTLDRLAPGYRWLRLHDDGRLETGISRVDDVVF
  soluble on expression in E. coli: not soluble

## MASLNCHDKCSTTTQSDINLKDELLSSTSIECRPGNDLLESLHKEQNRWYSETKTFSDSSQHTGRGFEKYWFCYGIKCYYFVMDRKTWSGCKQTCQISSLSLLKIDNEDELKFLKLLVPSDSYWIGLSYDNKKKDWAWINNGPSKLALNTMKYNIRDGGCMLLSKTRLDNDNCDKSFICICGKRLDKFPH
  soluble on expression in E. coli: soluble

## MSLTELLNNLEYKKEQLKKLLLRIHEGESVEKLKEEFRTVLSNISPLEIPLIEQELVKEGISARDIAKMCDLHVELFREAVKGTGEVEEKDLPEGHPLKTLYQENKEIMKDAEMLNLYAKTLATTKDERMREEILGVLEEIVSSLRMVGFTHYNREEMLIFPYIERRGLTVIATVLWTKHDEIRAMIKQLAELLRKREEMPWEEFVEKFKAKAGEVAFALSDMVFRENNIFYPTLKALLSEGEWKAIKMQEDEIGYYKVKPPEWDPGEDVKPLHPWEINPELNVEQLLTLPKEVQQALRGQPLEFDKTQLKREEDIDLGTGYLNIEELKAIFEALPVDVTFIDKDDRVRFFSPGERIFTRTPSVLGRPVQLCHPPKSVYVVNKILKAFKEGRKKEATFWLRLREKYVYIKYVPLFNEKGEYIGTLEMTMDIAPYKKIEGEKRLLDWRDEGHHHHHH
  soluble on expression in E. coli: soluble

## PLAIVTSPEIKSPGDLKGKRLMLSEVNIDSANFTHMLQGFGLSMKDIQILSTSFNIHDFIDGKVDAYSIFLTNELFDLQRLGVRYNILDPSNYGVELYDENLFGAKEFVLKNPTLVKRFIDASNRGWQYALDHPEEIVDLILERYNTQ
  soluble on expression in E. coli: not soluble

## MGSDKIHHHHHHMLTTLAIFNYRSLREIVLPLGQLNLITGANGSGKSNLYKALRLLAQTAQGGVVNALAQEGGLDSSFWAGPENFTKSMLAGDTAIEATVRQAPKRLKLGFAGEDFSYLIELGLPEPDATTLFGLDPQIKREAIWNGPKYRPSTVLVERRGPMVKSRSADGKGWIILGAHLQTGDSLFTELADPERCPEVLKLRDSIRAWRFYDHFRTDAEAPARRPQLGTATPVLHHDGRDLASAIQTIFEIGDKSAFDHAVSDAFPGAKVRIEPQAGGILVLAFHQHGLLRPLNASELSDGTLRYLLLIAALLTPRPPELMVLNEPETSLHPDLLPALARLIAKVSEECQLWVVSHANRLINALSQFEHCNTLALDKTLGQTQIQGQDLLNTPSWLWQNR
  soluble on expression in E. coli: not soluble

## MHHHHHHSSGVDLGTENLYFQSMEETEKWMEEAMHMAKEALENTEVPVGCLMVYNNEVVGKGRNEVNQTKNATRHAEMVAIDQVLDWCRQSGKSPSEVFEHTVLYVTVEPCIMCAAALRLMKIPLVVYGCQNERFGGCGSVLNIASADLPNTGRPFQCIPGYRAEEAVEMLKTFYKQENPNAPKSKVRK
  soluble on expression in E. coli: soluble

## DTTQNLMIEGDNLEVLKLLQKSYAGKIKLIYIDPPYNTGKDFVYPDDFKDNIRNYLELTGQVEGGRKISSNTEASGRFHTDWLNMMYPRLKIARQLLSPTGVIAVHIDEHELEALVIVLRDLFGEENELGVTIWDKRNPKGDSRGIAYQHESLVLFARDAEELFARSPVRRAKRNAERMLNAASRFVTECGSIAEARAAYRSWVKSQSTLSGGESMYDKLSETGRVYRLVSMAWPNKKRAPADYFVPLKHPITGKDCPIPERGWRNPPATMKKLLEDGLIEFGPDEIMQPQRIYFLDENMYENVPSIVPFGGSDDELLKELSVPFEQPKPVDFSVQVISWCSSKDEIVMDFFAGSGTTGHAVMAQNAADGGNRRYILVQLPEPLDPENKDQKVAAEFCDKLGKPRTIAELTKERLRRAAKKIKEENPLFAGDLGFRVFKLDSSNIRA
  soluble on expression in E. coli: not soluble

## MTWPARRVLYAIWQDPWMTVSRATYISRMLALVNWATWPDDADTSDTPAACVDGDCSRPNAPGERYPTFRWSDALVRELDAVLLSTEPYRFTEDHADALERQIGKPVLLVDGEMLSWYGSRAVAGARYLRSLAQGFLEHHHHHH
  soluble on expression in E. coli: not soluble

## MGSDKIHHHHHHMAVKTIRTLAHFITACSEIKVKDDHTLFYRGHASDIYTPFPTIFRNQNDDPKKSRYIESEGELFHNLVTQCPEEFKDCTSTFDFLVKMQHYGLPTRLLDITSNPLVALYFACCTLIPESTKDKNAKNGQVLVYQVPNEEIKYYNSDTVSVISNLARVNTSFNFTDEEDRERFLHSIQAEKPYFKPYIKEAHLHSVICVKPKLDNRRIVKQSGAFFLFGMGKNKTDSIRISDKYRPDIKHIDIPKSSKETLLRELATLSISEATLFPEIDNVARFLKKEVKIKSLVVEEIEEEKLGNEISVAYQEFILNSLVLNTDLLEQIQHNSADRAMLGLYPELLQKAIIESQENYNEIALKLLVEEDSADKFAKNIFSKLKHKLEELS
  soluble on expression in E. coli: not soluble

## MKHDHFIVQSPAAPAQQLLLLFHGVGDNPVSMGQIGSWFAPQFPDALIVSIGGVEPCGPNGRQWFSLQGVTEENRQQRIDAIMPTFIEIVRYWQEKSGVSPLATALIGFSQGAIMSLESIKAAPDLASRVIAFNGRYATLPETATTATTIHLIHGGEDRVIDLAWAVSAEEALQQAGGDVTLDIVDDLGHAIDDRSMQLAIERLRYTVPKHY
  soluble on expression in E. coli: not soluble

## MAHHHHHHMTETVLRLGPQEYAHLTNLNTNTTELILGPLNRPVASHESVALPPTKFVVVPPTQYCLIANPHRTAVDPTTGIAQPVRDAYGQVQVRSGEEEYRWHVPPFPLYPEEAVVKLEDLKVLSARAALQIQVLAAYNVPACSASDSMPSPVRREAGERYSSAAPAPTTLALRSTSRRR
  soluble on expression in E. coli: soluble

## MTLFEPSTSGNRMGYRGSSNSSSGVGSGGSGSLMTQSIGGPNKHLSASHSTLNTASTHDMMHSKIPKSPSNESLSRSHTSSSGGSQGGHNSNSGSNSGFRPEDAVQTFGAKLVPFEKNEIYNYTRVFFVGSHAKKQAGVIGGANNGGYDDENGSYQLVVHDHIAYRYEVLKVIGKGSFGQVIKAFDHKYQQYVALKLVRNEKRFHRQADEEIRILDHLRRQDSDGTHNIIHMLDYFNFRNHKCITFELLSINLYELIKRNKFQGFSLMLVRKFAYSMLLCLDLLQKNRLIHCDLKPENVLLKQQGRSGIKVIDFGSSCFDDQRIYTYIQSRFYRAPEVILGTKYGMPIDMWSLGCILAELLTGYPLLPGEDENDQLALIIELLGMPPPKSLETAKRARTFITSKGYPRYCTATSMPDGSVVLAGARSKRGKMRGPPASRSWSTALKNMGDELFVDFLKRCLDWDPETRMTPAQALKHKWLRRRLPNPPRDGLESMGGLADHEVCFIIF
  soluble on expression in E. coli: not soluble

## MTKQAEETQKPIIFAPETYQYDKFTLNEKQLTDDPIDLFTKWFNEAKEDPRETLPEAITFSSAELPSGRVSSRILLFKELDHRGFTIYSNWGTSRKAHDIATNPNAAIVFFWKDLQRQVRVEGITEHVNRETSERYFKTRPRGSKIGAWASRQSDVIKNREELDELTQKNTERFKDAEDIPCPDYWGGLRIVPLEIEFWQGRPSRLHDRFVYRRKTENDPWKVVRLAP
  soluble on expression in E. coli: soluble
